From publication PMC10786891, “Massively parallel profiling of RNA-targeting CRISPR-Cas13d”
Residue numbers refer to the chain shown, from its start. Numbers in names are those of the source.

T1: EsCas13d, nuclease-dead (Eubacterium siraeum, UniProt B0MS50, R295A;H300A;R849A;H854A)
T1 sequence: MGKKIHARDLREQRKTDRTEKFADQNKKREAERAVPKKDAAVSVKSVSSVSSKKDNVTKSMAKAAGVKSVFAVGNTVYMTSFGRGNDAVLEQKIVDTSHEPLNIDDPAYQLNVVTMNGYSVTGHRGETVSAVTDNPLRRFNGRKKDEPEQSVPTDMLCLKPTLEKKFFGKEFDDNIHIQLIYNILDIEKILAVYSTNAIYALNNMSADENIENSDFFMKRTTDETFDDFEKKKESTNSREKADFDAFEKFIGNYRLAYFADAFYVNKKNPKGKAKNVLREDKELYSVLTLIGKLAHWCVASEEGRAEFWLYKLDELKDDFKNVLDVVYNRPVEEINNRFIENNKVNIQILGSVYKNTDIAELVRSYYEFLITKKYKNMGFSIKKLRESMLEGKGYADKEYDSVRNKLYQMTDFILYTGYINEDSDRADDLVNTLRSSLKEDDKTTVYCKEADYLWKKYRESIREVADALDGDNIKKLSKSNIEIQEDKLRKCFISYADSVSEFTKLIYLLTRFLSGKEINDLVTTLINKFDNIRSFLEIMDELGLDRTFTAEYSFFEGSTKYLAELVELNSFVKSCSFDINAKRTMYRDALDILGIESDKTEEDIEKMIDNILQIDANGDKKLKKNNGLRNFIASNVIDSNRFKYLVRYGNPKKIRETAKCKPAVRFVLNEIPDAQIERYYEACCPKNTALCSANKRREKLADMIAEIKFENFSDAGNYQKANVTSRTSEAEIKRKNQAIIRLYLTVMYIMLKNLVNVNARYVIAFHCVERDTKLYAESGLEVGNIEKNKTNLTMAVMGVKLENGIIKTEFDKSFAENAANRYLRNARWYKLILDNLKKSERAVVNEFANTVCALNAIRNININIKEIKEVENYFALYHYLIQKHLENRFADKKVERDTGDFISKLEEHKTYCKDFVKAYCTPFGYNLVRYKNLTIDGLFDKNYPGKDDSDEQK

B1: target 1 insC 3' of 17,insU 3' of 2 (mixed)
RNA 1: CACCCGUGCAAAAAUGCAGGGGUCUAAAACUGAGCGGAUAACCUCUCUAUGG
RNA 2: GGGAAUGGAUCCACAUCUACGAAUUCGUACCAUAGCAGAGGUUAUCCGCUCUACCGAGAUCGGAAGAGCACACGU
B2: target 1 insA 3' of 13,insG 3' of 2 (mixed)
RNA 1: B1 RNA 1
RNA 2: B1 RNA 2 with C36A, A37G, G38A, A39G, G40A, U52G
B3: target 1 C2U,G5A (mixed)
RNA 1: B1 RNA 1
RNA 2: GGGAAUGGAUCCACAUCUACGAAUUCGUACCAUAGAGAGGUUAUCCACUUACCGAGAUCGGAAGAGCACACGU
B4: target 1 insG 3' of 3,insC 3' of 1 (mixed)
RNA 1: B1 RNA 1
RNA 2: GGGAAUGGAUCCACAUCUACGAAUUCGUACCAUAGAGAGGUUAUCCGCUGCACCCGAGAUCGGAAGAGCACACGU
B5: target 3 G3U,U8A (mixed)
RNA 1: CACCCGUGCAAAAUUGCAGGGGUCUAAAACGACCUGAAUAUUUCAGAUCAAA
RNA 2: GGGAAUGGAUCCACAUCUACGAAUUCGUUUUUGAUCUGAAAUAAUCAGUUCUGCAGAUCGGAAGAGCACACGU
B6: target 3 G4U,A5U (mixed)
RNA 1: B5 RNA 1
RNA 2: B5 RNA 2 with A44U, A47U, G48U, U49G
B7: target 3 G4C,U8A (mixed)
RNA 1: B5 RNA 1
RNA 2: B5 RNA 2 with G48C, U49G
B8: target 3 insU 3' of 22,insU 3' of 13 (mixed)
RNA 1: B5 RNA 1
RNA 2: GGGAAUGGAUCCACAUCUACGAAUUCGUUUUUUGAUCUGAUAAUAUUCAGGUCUGCAGAUCGGAAGAGCACACGU
B9: target 3 insC 3' of 13,insU 3' of 4 (mixed)
RNA 1: B5 RNA 1
RNA 2: GGGAAUGGAUCCACAUCUACGAAUUCGUUUUUGAUCUGACAAUAUUCAGUGUCUGCAGAUCGGAAGAGCACACGU
B10: target 3 del4,del8 (mixed)
RNA 1: B5 RNA 1
RNA 2: GGGAAUGGAUCCACAUCUACGAAUUCGUUUUUGAUCUGAAAUAUCAGUCUGCAGAUCGGAAGAGCACACGU
B11: target 3 A5U,C6A (mixed)
RNA 1: B5 RNA 1
RNA 2: B5 RNA 2 with A44U, C46A, A47U, U49G
B12: target 3 U8A (mixed)
RNA 1: B5 RNA 1
RNA 2: B5 RNA 2 with U49G
B13: target 3 A9G,U22C (mixed)
RNA 1: B5 RNA 1
RNA 2: B5 RNA 2 with U30C, A43G, A44U, U49G
B14: target 3 C1A,U8A (mixed)
RNA 1: B5 RNA 1
RNA 2: B5 RNA 2 with U49G, C51A
B15: target 3 A5U,U8G (mixed)
RNA 1: B5 RNA 1
RNA 2: B5 RNA 2 with A44G, A47U, U49G
B16: target 3 U2A,A12U (mixed)
RNA 1: B5 RNA 1
RNA 2: B5 RNA 2 with A40U, A44U, U49G, U50A
B17: target 3 insG 3' of 6,insA 3' of 3 (mixed)
RNA 1: B5 RNA 1
RNA 2: B9 RNA 2 with C40A, A42U, U43A, A44U, U46C, C47G, U50G, G51A
B18: target 3 U2A,U22C (mixed)
RNA 1: B5 RNA 1
RNA 2: B5 RNA 2 with U30C, A44U, U49G, U50A
B19: target 3 insC 3' of 11,insG 3' of 2 (mixed)
RNA 1: B5 RNA 1
RNA 2: B9 RNA 2 with C40A, A42C, U50G, G51U, U52G
B20: target 3 C1G,U8A (mixed)
RNA 1: B5 RNA 1
RNA 2: B5 RNA 2 with U49G, C51G
B21: target 3 C1U,A5G (mixed)
RNA 1: B5 RNA 1
RNA 2: B5 RNA 2 with A44U, A47G, U49G, C51U
B22: target 3 C1A,C16U (mixed)
RNA 1: B5 RNA 1
RNA 2: B5 RNA 2 with C36U, A44U, U49G, C51A
B23: target 3 C6A,A9G (mixed)
RNA 1: B5 RNA 1
RNA 2: B5 RNA 2 with A43G, A44U, C46A, U49G
B24: target 3 insA 3' of 6,insC 3' of 5 (mixed)
RNA 1: B5 RNA 1
RNA 2: B9 RNA 2 with C40A, A42U, U43A, A44U, U46C, C47A, G49C, U50G
B25: target 3 U21A,U22A (mixed)
RNA 1: B5 RNA 1
RNA 2: B5 RNA 2 with U30A, U31A, A44U, U49G
B26: target 3 A13G,U22G (mixed)
RNA 1: B5 RNA 1
RNA 2: B5 RNA 2 with U30G, A39G, A44U, U49G
B27: target 3 complement block 18-20 (mixed)
RNA 1: B5 RNA 1
RNA 2: B5 RNA 2 with U32A, G33C, A34U, A44U, U49G
B28: target 3 insG 3' of 2,insA 3' of 1 (mixed)
RNA 1: B5 RNA 1
RNA 2: B9 RNA 2 with C40A, A42U, U43A, A44U, U46C, C47A, A48G, U52C, C53A
B29: target 3 insC 3' of 22,insA 3' of 22 (mixed)
RNA 1: B5 RNA 1
RNA 2: GGGAAUGGAUCCACAUCUACGAAUUCGUUUCAUUGAUCUGAAAUAUUCAGGUCUGCAGAUCGGAAGAGCACACGU
B30: target 3 del5,del22 (mixed)
RNA 1: B5 RNA 1
RNA 2: GGGAAUGGAUCCACAUCUACGAAUUCGUUUUGAUCUGAAAUAUUCGGUCUGCAGAUCGGAAGAGCACACGU
B31: target 3 insU 3' of 16,insC 3' of 3 (mixed)
RNA 1: B5 RNA 1
RNA 2: B9 RNA 2 with G38U, A39G, C40A, U50G, G51C
B32: target 3 C1U,U2A (mixed)
RNA 1: B5 RNA 1
RNA 2: B5 RNA 2 with A44U, U49G, U50A, C51U

Target: T1, EsCas13d, nuclease-dead
Test: crRNA (strand 1, pre-loaded); Mg2+; 40 mM Tris-HCl pH 7.5, 150 mM NaCl, 6 mM MgCl2, 1 mM DTT, 0.1% Tween-20, 0.2 mg/ml BSA; 25 C; 10 min per concentration, then washed
Details: tags: His6-TwinStrep-SUMO cleaved; N-terminal SNAP kept (SNAP-Surface 488); label: 3' end held by stalled T7 RNA polymerase

Binder | Kd [nM]
B1 | 55 ± 18
B2 | 3.54 ± 0.28
B3 | 49 ± 9
B4 | 11.5 ± 0.9
B5 | 89 ± 14.5
B6 | 25.2 ± 3.6
B7 | 71.5 ± 10
B8 | 71 ± 33
B9 | 59.5 ± 17.5
B10 | 97 ± 29
B11 | 29.9 ± 2.7
B12 | 58.5 ± 7.5
B13 | 25.9 ± 4
B14 | 68 ± 17.5
B15 | 92.5 ± 16.5
B16 | 79 ± 17

Binder | Kd [nM]
B17 | 10.4 ± 1.15
B18 | 23.1 ± 3.7
B19 | 54 ± 14
B20 | 45.5 ± 15.5
B21 | 20.6 ± 3.3
B22 | ~91
B23 | 59.5 ± 13
B24 | 7.3 ± 0.55
B25 | 26.6 ± 3
B26 | 67 ± 26
B27 | 26.1 ± 5.05
B28 | 54.2 ± 6.65
B29 | 20.2 ± 2.4
B30 | 29.3 ± 2.3
B31 | 64.5 ± 10
B32 | 86 ± 24
